The values that follow come from the supplement of paper PMC10567573.

First the molecules themselves.
B1: PPP2R2C (parent)
chain: YSSSKGSLRLCDMRAAALCDKHSK
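Further: lentivirally expressed fusions sorted by FACS into six bins by GFP to DsRed ratio, PSI derived from sequencing read proportions per bin multiplied by bin number.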

Variants of B1 are the subject of the series. The experiment in a line: protein stability index of a GFP-peptide fusion (GPS, HEK-293T) (PSI 1-6); higher = more stable. The conditions noted are these: c terminus: a fixed tail appended.
In the case of YFSSKGSLRLCDMRAAALCDKHSK [S2F], the protein stability index was found to be 2.8. In the case of YHSSKGSLRLCDMRAAALCDKHSK [S2H], the protein stability index was 2.

For YTSSKGSLRLCDMRAAALCDKHSK [S2T], the protein stability index came out at 2. Consider YMSSKGSLRLCDMRAAALCDKHSK [S2M], for which the protein stability index was 1.72. Consider YESSKGSLRLCDMRAAALCDKHSK [S2E], for which the protein stability index amounted to 3.84. In the case of YNSSKGSLRLCDMRAAALCDKHSK [S2N], the protein stability index is 3.28. Consider YKSSKGSLRLCDMRAAALCDKHSK [S2K], for which the protein stability index worked out at 3.58. As to YCSSKGSLRLCDMRAAALCDKHSK [S2C], the protein stability index came to 1.92. As for YYSSKGSLRLCDMRAAALCDKHSK [S2Y], the protein stability index turned out to be 2.94. As for YPSSKGSLRLCDMRAAALCDKHSK [S2P], the protein stability index came out at 2.5.

As for YGSSKGSLRLCDMRAAALCDKHSK [S2G], the protein stability index was determined as 2.46. For the variant YQSSKGSLRLCDMRAAALCDKHSK [S2Q], the protein stability index was 1.94. With YISSKGSLRLCDMRAAALCDKHSK [S2I] the figure was 1.54; with YASSKGSLRLCDMRAAALCDKHSK [S2A], 2.44; with YRSSKGSLRLCDMRAAALCDKHSK [S2R], 2.98. The same measure for YDSSKGSLRLCDMRAAALCDKHSK [S2D]: 3.89; for YWSSKGSLRLCDMRAAALCDKHSK [S2W]: 1.89; for YLSSKGSLRLCDMRAAALCDKHSK [S2L]: 2.52. Regarding YSSSKGSLELCDMRAAALCDKHSK [R9E], the protein stability index was 3.7. For YSSSKGSLLLCDMRAAALCDKHSK [R9L], the protein stability index is 3.61. With YSSSKGSLQLCDMRAAALCDKHSK [R9Q] the figure was 3.3; with YSSSKGSLPLCDMRAAALCDKHSK [R9P], 3.11; with YSSSKGSLKLCDMRAAALCDKHSK [R9K], 3.11. With YSSSKGSLVLCDMRAAALCDKHSK [R9V] the figure was 2.91; with YSSSKGSLYLCDMRAAALCDKHSK [R9Y], 1.76. Take YSSSKGSLFLCDMRAAALCDKHSK [R9F]: the protein stability index is 2.37. Regarding YSSSKGSLNLCDMRAAALCDKHSK [R9N], the protein stability index was 3.45.

For the variant YSSSKGSLCLCDMRAAALCDKHSK [R9C], the protein stability index is 3.28. Consider YSSSKGSLALCDMRAAALCDKHSK [R9A], for which the protein stability index came to 2.63. The same measure for YSSSKGSLGLCDMRAAALCDKHSK [R9G]: 1.9. Consider YSSSKGSLILCDMRAAALCDKHSK [R9I], for which the protein stability index worked out at 1.7. For the variant YSSSKGSLMLCDMRAAALCDKHSK [R9M], the protein stability index stood at 1.9. The same measure for YSSSKGSLDLCDMRAAALCDKHSK [R9D]: 4.21; for YSSSKGSLHLCDMRAAALCDKHSK [R9H]: 2.42. In the case of YSSSKGSLSLCDMRAAALCDKHSK [R9S], the protein stability index was determined as 3.81. The same measure for YSSSKGSLTLCDMRAAALCDKHSK [R9T]: 3.28. With YSSSKGSERLCDMRAAALCDKHSK [L8E] the figure was 2.41; with YSSSKGSGRLCDMRAAALCDKHSK [L8G], 2.19. For YSSSKGSFRLCDMRAAALCDKHSK [L8F], the protein stability index came to 2.5.

For YSSSKGSSRLCDMRAAALCDKHSK [L8S], the protein stability index is 2.02. Consider YSSSKGSRRLCDMRAAALCDKHSK [L8R], for which the protein stability index worked out at 1.51. As for YSSSKGSCRLCDMRAAALCDKHSK [L8C], the protein stability index was determined as 2.5. Consider YSSSKGSNRLCDMRAAALCDKHSK [L8N], for which the protein stability index was determined as 2.36. For the variant YSSSKGSIRLCDMRAAALCDKHSK [L8I], the protein stability index was found to be 1.78.

As to YSSSKGSPRLCDMRAAALCDKHSK [L8P], the protein stability index was found to be 2.27. For the variant YSSSKGSWRLCDMRAAALCDKHSK [L8W], the protein stability index is 2.39. Turning to YSSSKGSVRLCDMRAAALCDKHSK [L8V], the protein stability index stood at 1.95. The same measure for YSSSKGSHRLCDMRAAALCDKHSK [L8H]: 2.64. Take YSSSKGSARLCDMRAAALCDKHSK [L8A]: the protein stability index was determined as 1.75. The same measure for YSSSKGSDRLCDMRAAALCDKHSK [L8D]: 2.76. With YSSSKGSKRLCDMRAAALCDKHSK [L8K] the figure was 2.17. On to YSSSKGSQRLCDMRAAALCDKHSK [L8Q], for which the protein stability index was 1.89. With YSSSKGSMRLCDMRAAALCDKHSK [L8M], the protein stability index was determined as 1.79.

For the variant YSSSKGSTRLCDMRAAALCDKHSK [L8T], the protein stability index worked out at 1.97.

On to YSSSKGSYRLCDMRAAALCDKHSK [L8Y], for which the protein stability index is 1.36.

Turning to YSSSMGSLRLCDMRAAALCDKHSK [K5M], the protein stability index is 2.1.

For the variant YSSSEGSLRLCDMRAAALCDKHSK [K5E], the protein stability index is 1.73. With YSSSVGSLRLCDMRAAALCDKHSK [K5V], the protein stability index came to 1.55. For YSSSLGSLRLCDMRAAALCDKHSK [K5L], the protein stability index was 1.93. As to YSSSSGSLRLCDMRAAALCDKHSK [K5S], the protein stability index stood at 2.27. Consider YSSSPGSLRLCDMRAAALCDKHSK [K5P], for which the protein stability index worked out at 2.03. As for YSSSAGSLRLCDMRAAALCDKHSK [K5A], the protein stability index is 1.65. For the variant YSSSTGSLRLCDMRAAALCDKHSK [K5T], the protein stability index is 2.23.

With YSSSFGSLRLCDMRAAALCDKHSK [K5F], the protein stability index amounted to 1.84.

For the variant YSSSYGSLRLCDMRAAALCDKHSK [K5Y], the protein stability index amounted to 1.52. Take YSSSQGSLRLCDMRAAALCDKHSK [K5Q]: the protein stability index turned out to be 2.12.

On to YSSSIGSLRLCDMRAAALCDKHSK [K5I], for which the protein stability index is 2.19. With YSSSWGSLRLCDMRAAALCDKHSK [K5W], the protein stability index worked out at 2.11.

Regarding YSSSDGSLRLCDMRAAALCDKHSK [K5D], the protein stability index was found to be 2.06.

For the variant YSSSRGSLRLCDMRAAALCDKHSK [K5R], the protein stability index is 1.85. The same measure for YSSSGGSLRLCDMRAAALCDKHSK [K5G]: 1.49. The same measure for YSSSNGSLRLCDMRAAALCDKHSK [K5N]: 1.43; for YSSSCGSLRLCDMRAAALCDKHSK [K5C]: 1.68.

Consider YSSSHGSLRLCDMRAAALCDKHSK [K5H], for which the protein stability index was found to be 1.68. In the case of YSSSKDSLRLCDMRAAALCDKHSK [G6D], the protein stability index came to 2.73. For YSSSKSSLRLCDMRAAALCDKHSK [G6S], the protein stability index came to 1.82.

YSSSKESLRLCDMRAAALCDKHSK [G6E]: the protein stability index came to 2.68. As to YSSSKYSLRLCDMRAAALCDKHSK [G6Y], the protein stability index was determined as 1.52. Regarding YSSSKWSLRLCDMRAAALCDKHSK [G6W], the protein stability index turned out to be 1.76.

Turning to YSSSKNSLRLCDMRAAALCDKHSK [G6N], the protein stability index amounted to 1.94. The same measure for YSSSKVSLRLCDMRAAALCDKHSK [G6V]: 2.21; for YSSSKMSLRLCDMRAAALCDKHSK [G6M]: 1.85; for YSSSKFSLRLCDMRAAALCDKHSK [G6F]: 1.81. The same measure for YSSSKQSLRLCDMRAAALCDKHSK [G6Q]: 2.39; for YSSSKASLRLCDMRAAALCDKHSK [G6A]: 1.91. For YSSSKRSLRLCDMRAAALCDKHSK [G6R], the protein stability index was 2.05. Take YSSSKLSLRLCDMRAAALCDKHSK [G6L]: the protein stability index came to 2.18.

As to YSSSKKSLRLCDMRAAALCDKHSK [G6K], the protein stability index worked out at 2.2.

Consider YSSSKCSLRLCDMRAAALCDKHSK [G6C], for which the protein stability index worked out at 1.95. On to YSSSKTSLRLCDMRAAALCDKHSK [G6T], for which the protein stability index stood at 2.07.

As for YSSSKPSLRLCDMRAAALCDKHSK [G6P], the protein stability index was 2.48. For YSSSKHSLRLCDMRAAALCDKHSK [G6H], the protein stability index was 2.04. With YSSSKISLRLCDMRAAALCDKHSK [G6I] the figure was 2.31.

For the variant YSSDKGSLRLCDMRAAALCDKHSK [S4D], the protein stability index is 2.96.
